Assay results as given in US20230227577A1 (MYTHIC THERAPEUTICS, published 2023).

Assays:
mouse DLL3 on CHO cells = target: T1, mouse DLL3 on CHO cells (mouse, UniProt O88516 33-592); test: flow cytometry (FACS) on CHO cells expressing mouse DLL3
T1 construct: whole, on cells; also called CHO cells expressing mouse DLL3
T1 sequence (looked up): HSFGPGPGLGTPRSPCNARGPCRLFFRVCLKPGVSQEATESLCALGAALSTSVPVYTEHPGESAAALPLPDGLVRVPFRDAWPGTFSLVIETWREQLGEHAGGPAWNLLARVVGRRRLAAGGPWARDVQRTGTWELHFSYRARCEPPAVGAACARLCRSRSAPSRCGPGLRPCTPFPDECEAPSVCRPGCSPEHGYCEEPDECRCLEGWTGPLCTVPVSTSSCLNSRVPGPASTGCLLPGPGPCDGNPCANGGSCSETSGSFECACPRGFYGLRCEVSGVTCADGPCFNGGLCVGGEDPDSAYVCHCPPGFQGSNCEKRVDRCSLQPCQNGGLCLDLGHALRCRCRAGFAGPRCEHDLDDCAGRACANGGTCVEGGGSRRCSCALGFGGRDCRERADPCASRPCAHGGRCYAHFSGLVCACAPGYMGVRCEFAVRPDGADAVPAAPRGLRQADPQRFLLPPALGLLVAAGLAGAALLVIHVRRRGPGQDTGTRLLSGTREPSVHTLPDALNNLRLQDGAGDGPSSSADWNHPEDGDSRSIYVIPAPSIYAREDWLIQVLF
Experimental: (§1) Additional experiments were carried out to further characterize the binding properties of the anti-DLL3 constructs. Binding properties tested include dissociation constant (KD), off-rate (koff), binding to DLL3 protein by ELISA and binding to CHO cells expressing human, cyno or mouse DLL3. To obtain off-rate (koff), human biotinylated DLL3 was immobilized on Octet SA tips, and cynomolgus or mouse DLL3 was immobilized on Octet AR2G tips. For each DLL3 protein, the binding to a dilution series of each anti-DLL3 construct was measured using Fortebio Octet Red. The dissociation constant (KD), off-rate (koff) and other kinetic parameters for each anti-DLL3 construct were calculated using a 1:1 binding model. In addition, binding of these anti-DLL3 constructs to CHO cells expressing human, cyno or mouse DLL3 protein was analyzed using flow cytometry (FACS).

[1] = target: T2, DLL3 target antigen coated on Octet SA tips (binning experiment) (Homo sapiens (Human), UniProt Q9NYJ7 27-492, Probably biotinylated for capture on streptavidin (SA) tips. The site is not stated.); test: Octet binning on DLL3-coated SA tips; competitor: 3HCE4
T2 sequence: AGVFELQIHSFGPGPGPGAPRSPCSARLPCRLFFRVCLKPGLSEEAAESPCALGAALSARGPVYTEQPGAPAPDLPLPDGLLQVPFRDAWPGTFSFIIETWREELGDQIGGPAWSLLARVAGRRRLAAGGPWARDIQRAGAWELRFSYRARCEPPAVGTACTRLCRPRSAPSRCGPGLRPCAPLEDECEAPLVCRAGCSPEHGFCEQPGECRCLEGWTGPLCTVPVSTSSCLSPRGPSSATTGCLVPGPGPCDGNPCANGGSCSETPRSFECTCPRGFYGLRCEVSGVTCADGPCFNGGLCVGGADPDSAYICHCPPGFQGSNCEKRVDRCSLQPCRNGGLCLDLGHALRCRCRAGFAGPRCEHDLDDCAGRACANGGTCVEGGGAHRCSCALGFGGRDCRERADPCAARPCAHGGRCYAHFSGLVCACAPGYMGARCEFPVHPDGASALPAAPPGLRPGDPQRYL
Experimental: (§2) Antibody binning experiments were carried out for 5 anti-DLL3 VHHs and an anti-human DLL3 BiTE (SEQ ID NO: 756). The target antigen was coated on a series of Octet SA tips. Each series of tips was first soaked in a periplasmic extract containing one specific VHH. After the response signals reached saturation, the tips were transferred to a mix of PEs containing again the first VHH (at the same concentration) plus a different VHH (termed secondary VHH) for each tip of the series. Secondary VHH that still bind the target antigen in the presence of the first VHH will show an increased response, as compared to the binding response of the first VHH alone. This was repeated for each VHH as primary VHH until all VHH were tested against each other in both directions (as primary and as secondary binder). From the response data, the bins were deduced for each VHH. 2HCE117 and 3HCE4 show competition with the human DLL3 BiTEs, whereas 3HCE56 and 3HCE87 show a partial competition.

[2] = target: T2, DLL3 target antigen coated on Octet SA …; test: Octet binning on DLL3-coated SA tips; competitor: 2HCE27
Experimental: as §2

[3] = target: T2, DLL3 target antigen coated on Octet SA …; test: Octet binning on DLL3-coated SA tips; competitor: 3HCE56
Experimental: as §2

[4] = target: T3, recombinant human DLL3 protein (human, UniProt Q9NYJ7 27-492, limits assumed); test: Fortebio Octet Red, DLL3 immobilised on tips, dilution series of the VHH, 1:1 binding model; kon error 1.20E+02; Full R2 0.9994
T3 construct: also called rhu DLL3; human biotinylated DLL3
T3 sequence (looked up): T2 sequence
Experimental: as §1

[5] = target: T3, recombinant human DLL3 protein; test: Fortebio Octet Red, DLL3 immobilised on tips, dilution series of the VHH, 1:1 binding model; koff error 6.05E-07; Full R2 0.9994
Experimental: as §1

B1: 2HCE27 anti-DLL3 VHH (VHH)
VHH: QVQLQESGGGLVQAGGSLRLSCAASGRTFRSYAMGWFRQAPGKEREFIAVIIMSDGSTSYADSVKGRFTISRDNAKNTLYLQMNSLKPEDTAVYYCAARRDYFTGVYDYWGQGTQVTVSS
notes: In the binning assay it was used as a periplasmic extract; also called anti-DLL3 (2HCE27)
binding result (mouse DLL3 on CHO cells): binds
binning response (unit not given) [1]: 53.4
binning response (unit not given) [2]: 0
binning response (unit not given) [3]: 6500
kon [4]: 80900 M⁻¹ s⁻¹
koff [5]: 0.000638 s⁻¹
